Several values for one entry are separate records, joined by “and”; a condition that tells them apart may be missing. Equal values may be shown once.
Assays:
human ICOS = target: T1, human ICOS (human, UniProt Q9Y6W8 21-199); assay: cell-based or functional assay
T1 sequence: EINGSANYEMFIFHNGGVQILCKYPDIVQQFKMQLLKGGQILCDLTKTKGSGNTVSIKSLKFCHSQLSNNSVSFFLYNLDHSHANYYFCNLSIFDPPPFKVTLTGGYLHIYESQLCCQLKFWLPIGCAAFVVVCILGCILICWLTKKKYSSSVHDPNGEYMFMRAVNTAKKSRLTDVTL

cynomolgus ICOS [1] = target: T2, cynomolgus ICOS (cynomolgus, UniProt A0A2K5TQR6 21-168); assay: cell-based or functional assay
T2 sequence: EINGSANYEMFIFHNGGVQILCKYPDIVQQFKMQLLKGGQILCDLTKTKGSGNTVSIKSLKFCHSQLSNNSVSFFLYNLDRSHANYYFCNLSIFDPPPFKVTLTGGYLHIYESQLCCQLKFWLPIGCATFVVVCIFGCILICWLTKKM

cynomolgus ICOS [2] = target: T2, cynomolgus ICOS; assay: cell-based or functional assay; remark: listed apart in the source
cynomolgus ICOS [3] = target: T2, cynomolgus ICOS; assay: cell-based or functional assay; remark: listed apart in the source
Human FcγRIIa = target: T3, Human FcγRIIa (human, UniProt P12318); assay: BIAcore 3000; IgG immobilized on CM5 chip, soluble FcγR extracellular domain injected; equilibrium 1:1 binding isotherm
T3 construct: extracellular domain
T3 sequence (extracellular domain, looked up): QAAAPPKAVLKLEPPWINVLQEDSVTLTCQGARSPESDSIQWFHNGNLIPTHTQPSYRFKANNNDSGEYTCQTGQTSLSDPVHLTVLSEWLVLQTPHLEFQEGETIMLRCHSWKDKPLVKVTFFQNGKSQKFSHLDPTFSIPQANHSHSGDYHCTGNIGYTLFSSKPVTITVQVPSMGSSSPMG
Method: (§1) The measurements are performed according to standard protocols. Briefly, all IgGs are immobilized onto separate flow cells of two CM5 sensor chips using standard amino coupling chemistry as recommended by the manufacturer. […] Stock solutions of the recombinantly expressed extracellular domains of all FcγRs at either 4000 or 16000 nM are prepared and then serially diluted down to the desired concentrations using the instrument buffer (50 mM HBS buffer containing 0.01 M HEPES, pH 7.4, 0.15 M NaCl, 3 mM EDTA and 0.005% P-20). Duplicate injections of each concentration of FcγR ared then injected over all of the IgG surfaces at a flow rate of 5 μL/min. Binding data are collected for approximately […], followed by a 30 sec. pulse of 5 mM HCl between injections to regenerate the IgG surfaces. Several buffer injections are also interspersed throughout the injection series. One of these buffer injections is used along with the reference cell data to correct the raw data sets. After all binding data is collected, individual data sets are averaged for each y concentration, then fit to a 1:1 binding isotherm from which the equilibrium binding constants, KD, are derived. Analysis is carried out using the BIAevaluation software.

Cynomolgus FcγRIIa = target: T4, Cynomolgus FcγRIIa (Macaca fascicularis, UniProt A0A140HDN0); assay: as above
T4 construct: extracellular domain
T4 sequence (extracellular domain): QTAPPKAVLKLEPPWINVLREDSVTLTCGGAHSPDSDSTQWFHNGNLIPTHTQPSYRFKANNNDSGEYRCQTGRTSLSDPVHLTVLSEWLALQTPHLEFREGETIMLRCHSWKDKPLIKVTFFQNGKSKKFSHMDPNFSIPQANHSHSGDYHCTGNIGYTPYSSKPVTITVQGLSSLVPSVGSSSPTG
Method: as §1

Human FcγRIIb = target: T5, Human FcγRIIb (human, UniProt P31994); assay: as above
T5 construct: extracellular domain; Only the IC9G1-aFuc cell is filled
T5 sequence (extracellular domain, looked up): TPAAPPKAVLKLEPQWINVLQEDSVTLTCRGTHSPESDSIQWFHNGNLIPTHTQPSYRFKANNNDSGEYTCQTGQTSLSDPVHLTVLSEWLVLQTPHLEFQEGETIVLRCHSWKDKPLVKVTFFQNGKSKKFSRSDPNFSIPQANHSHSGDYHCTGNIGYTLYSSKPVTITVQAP
Method: as §1

Cynomolgus FcγRIIb = target: T6, Cynomolgus FcγRIIb (Macaca fascicularis, UniProt A0A140HDP4); assay: as above
T6 construct: extracellular domain
T6 sequence (extracellular domain): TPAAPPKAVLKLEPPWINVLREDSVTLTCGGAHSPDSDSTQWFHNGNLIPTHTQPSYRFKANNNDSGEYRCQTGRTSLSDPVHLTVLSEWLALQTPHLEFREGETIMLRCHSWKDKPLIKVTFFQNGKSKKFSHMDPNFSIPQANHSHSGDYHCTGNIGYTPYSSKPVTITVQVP
Method: as §1

[4] = target: T7, cynomolgus FcγRIIIA, recombinantly expressed extracellular domain (cynomolgus, UniProt Q8SPW2 17-208); assay: as above
T7 construct: extracellular domain; also called cynomolgus FcgRIIIa
T7 sequence (Q8SPW2 17-208): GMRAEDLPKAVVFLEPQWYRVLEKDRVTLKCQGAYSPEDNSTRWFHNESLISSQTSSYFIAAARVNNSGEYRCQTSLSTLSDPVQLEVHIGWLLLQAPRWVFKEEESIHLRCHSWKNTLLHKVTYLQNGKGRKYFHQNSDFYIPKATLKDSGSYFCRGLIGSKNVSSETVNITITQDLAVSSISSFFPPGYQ
Method: as §1

B1: IC9G1-aFuc (afucosylated IC9G1 antibody composition) (antibody, human IgG1, kappa)
heavy: not shown
light: DIQMTQSPSSVSASVGDRVTITCRASQGISRLLAWYQQKPGKAPKLLIYVASSLQSGVPSRFSGSGSGTDFTLTISSLQPEDFATYYCQQANSFPWTFGQGTKVEIKRTVAAPSVFIFPPSDEQLKSGTASVVCLLNNFYPREAKVQWKVDNALQSGNSQESVTEQDSKDSTYSLSSTLTLSKADYEKHKVYACEVTHQGLSSPVTKSFNRGEC
modifications: chain 1 pos 305 (Asn297, EU numbering): complex N-glycoside-linked sugar chain without fucose on the reducing-end N-acetylglucosamine, written N
notes: Same polypeptides as IC9G1 (JMab-136 VH/VK, human IgHγ1 constant region, kappa); also called IG9G1-aFuc; ICG91-aFuc; copies: 2 + 2
**Q.** For B1, which “EC50 of ADCC activity (isolated human NK effector cells, 2:1, overnight)” value (“EC50 of ADCC activity” for short) (human ICOS) is on record?
**A.** 0.0082 nM

**Q.** What about the “EC50 of ADCC activity” value (cynomolgus ICOS [1]) of the same binder?
**A.** 0.0146 nM and 0.0171 nM

**Q.** And the “EC50 of ADCC (% cytotoxicity; human NK effector cells, isolated cynomolgus splenic T cells as targets)” value (cynomolgus ICOS [2])?
**A.** 0.00205 µg/mL

**Q.** What about the “EC50 of ADCC (% cytotoxicity; human NK effector cells, isolated cynomolgus mesenteric lymph node T cells as targets)” value (cynomolgus ICOS [3]) of the same binder?
**A.** 0.0024 µg/mL

**Q.** What about the Kd (Human FcγRIIa) of the same binder?
**A.** 2010 nM

**Q.** And the Kd (Cynomolgus FcγRIIa)?
**A.** 3140 nM

**Q.** What about the Kd (Human FcγRIIb) of the same binder?
**A.** 14000 nM

**Q.** And the Kd (Cynomolgus FcγRIIb)?
**A.** 1950 nM

**Q.** What about the Kd [4] of the same binder?
**A.** 21 nM

B2: IC9G1 (anti ICOS antibody comprising JMab-136 VH and VL domains and the IgHγ1 constant region) (antibody, human IgG1, kappa)
heavy: not shown
light: B1 light
notes: The rest is a human IgHγ1 constant region (IgG1) and a human IgLK (kappa) constant region; copies: 2 + 2
**Q.** B2 was tested. Which “EC50 of ADCC activity” value (human ICOS) did it give?
**A.** 0.0604 nM

**Q.** What about the “EC50 of ADCC activity” value (cynomolgus ICOS [1]) of the same binder?
**A.** 0.236 nM and 0.198 nM

**Q.** What about the “EC50 of ADCC (% cytotoxicity; human NK effector cells, isolated cynomolgus splenic T cells as targets)” value (cynomolgus ICOS [2]) of the same binder?
**A.** 0.0331 µg/mL

**Q.** What about the “EC50 of ADCC (% cytotoxicity; human NK effector cells, isolated cynomolgus mesenteric lymph node T cells as targets)” value (cynomolgus ICOS [3]) of the same binder?
**A.** 0.0278 µg/mL

**Q.** What about the Kd (Human FcγRIIa) of the same binder?
**A.** 3310 nM

**Q.** And the Kd (Cynomolgus FcγRIIa)?
**A.** 5280 nM

**Q.** What about the Kd (Cynomolgus FcγRIIb) of the same binder?
**A.** 2370 nM

**Q.** What about the Kd [4] of the same binder?
**A.** 394 nM

From patent publication US20110243929A1 (MEDLMMUNE, published 2011)
